Assay [1] has as its target MCPyV common T antigen (CT; shared N-terminal domain of LT and ST) peptide on HLA-A*03:01 (human). Nature of the assay: IFNγ ELISA.
Assay [2] addresses MCPyV large T antigen (LT) peptide on HLA-A*03:01 (human). Nature of the assay: IFNγ ELISA. Particulars: chains alpha TRAV3*00 CDR3:beta TRBV4-3*00 CDR3. A general note: In an ELISA, binding on a coated surface is turned into a signal by an enzyme label.
Where [3] appears, read: chains alpha TRAV12-1*00 CDR3:beta TRBV19*00 CDR3.

B1: TCR clonotype 3 specific for MCPyV CT AA 32–40 (subject 1233) (peptide)
chain 1: CAGARNDYKLSF
chain 2: CATSRDGAGLVNQPQHF
In the case of B1, the EC50 of peptide in assay [1] (chains alpha TRAV25*00 CDR3:beta TRBV15*00 CDR3) stood at 0.0234 µg/mL.

B2: TCR clonotype 1 specific for MCPyV LT AA 95–103 (subject 1233) (peptide)
chain 1: CAVRALGNAGNMLTF
chain 2: CASSPNPQGANMDTQYF
On to B2, for which the EC50 of peptide in assay [2] is 0.0019 µg/mL.

B3: TCR clonotype 2 specific for MCPyV CT AA 32–40 (subject 1233) (peptide)
chain 1: CVVNNNNNDMRF
chain 2: CASVSGQGVSPLHF
In assay [1] (setting [3]), B3 came in with an EC50 of peptide of 0.0236 µg/mL.

B4: TCR clonotype 1 specific for MCPyV CT AA 32–40 (subject 1233) (peptide)
chain 1: CVVNGNNNDMRF
chain 2: CASSQGFGANVLTF
For the molecule B4, the EC50 of peptide in assay [1] (setting [3]) amounted to 0.0076 µg/mL.

The values are drawn from publication PMC7196523.
